Measurements from patent US11591580B2, “K85 mutation-containing plant EPSPS mutant, and encoding gene and application thereof” (GEVOTO LLC, priority 2017, dated 2023).
Changes are numbered by the printed parent chain.

B1: G1: single-mutation soybean EPSPS mutant, SEQ ID NO: 20, only mutation K98(85)T (protein)
chain: MAAAEKPSTAPEIVLEPIKDISGTITLPGSKSLSNRILLLAALSEGTTVVDNLLYSEDIHYMLGALRTLGLRVEDDQTTKQAIVEGCGGLFPTIKESTDEINLFLGNAGTAMRPLTAAVVAAGGNASYVLDGVPRMRERPIGDLVAGLKQLGADVDCFLGTNCPPVRVNGKGGLPGGKVKLSGSVSSQYLTALLMAAPLALGDVEIEIVDKLISVPYVEMTLKLMERFGVSVEHSGDWDKFLVHGGQKYKSPGNAFVEGDASSASYFLAGAAVTGGTITVNGCGTSSLQGDVKFAEVLEKMGAKVTWSENSVTVTGPPQDSSGQKVLQGIDVNMNKMPDVAMTLAVVALFANGQTTIRDVASWRVKETERMIAICTELRKLGATVEEGPDYCVITPPEKLNVTAIDTYDDHRMAMAFSLAACGDVPVTIKDPGCTRKTFPDYFEVLERFTRH
modifications: Glycine max EPSPS mutant with mutation K98(85)T
B2: G2: single-mutation soybean EPSPS mutant, SEQ ID NO: 22, only mutation P114(101)S but no K98(85)T (protein)
chain: B1 chain with T98K, P114S
modifications: Glycine max EPSPS mutant with mutation P114(101)S
B3: G3: soybean EPSPS mutant, SEQ ID NO: 24, two mutations K98(85)T and P114(101)S (protein)
chain: B1 chain with P114S
modifications: Glycine max EPSPS mutant with mutations K98(85)T and P114(101)S

Assays:
double knockout E. coli = assay: growth of E. coli transformed by genes encoding soybean EPSPS (wild type and mutants) in culture media containing different glyphosate concentrations (Example 7, FIG. 3); type: cell-based
[1] = tested on: transgenic rice seedlings; assay: glyphosate resistance of the EPSPS mutant in transgenic rice plants sprayed with glyphosate (Example 8, Table 1); type: in vivo, rice (Nipponbare); details: for glyphosate resistance / survival of transformed rice seedlings (in words): 2× glyphosate dosage; for glyphosate resistance of transformed rice seedlings (in words): glyphosate sprayed at the 1× dosage
Excerpt: A method for detecting the glyphosate resistance of the G1 soybean EPSPS mutant (SEQ ID NO: 20), G2 soybean EPSPS mutant (SEQ ID NO: 22) and G3 soybean EPSPS mutant (SEQ ID NO: 24) provided in Example 7, the R1 rice EPSPS mutant (SEQ ID NO: 4) provided in Example 5, and the Z1 maize EPSPS mutant (SEQ ID NO: 12) provided in Example 6 in the transgenic rice is as follows:
The plasmids (containing the EPSPS mutant gene) of the monoclonal resistant bacteria of pADV5-EPSPS in Examples 1-7 were extracted by a conventional method, followed by double enzyme digestion by Pac1 and BstEII, the small fragments were collected, and then the small fragments were ligated, using T4 DNA ligase, to the pGVP1 vectors that had undergone the same double enzyme digestion, to obtain a pGVP1-EPSPS vector having a structure as shown in FIG. 8.
In the present example, the glyphosate resistance of the EPSPS mutant in transgenic rice plants were verified. An experiment method is as follows:
The transgenic rice seedlings transplanted were uniformly arranged in a same experiment area (preventing leaves from overlapping). The areas occupied by the experiment groups and the control group were calculated, and according to the areas, glyphosate was sprayed at a 1× dosage of 1060 g/hectare (0.106 g/m^2). 2× dosage was 2120 g/hectare, 5× dosage was 5300 g/hectare, and 20× dosage was 21200 g/hectare.
Commercially available Roundup® 41% ammonium glyphosate was used. Roundup® ammonium glyphosate with corresponding volumes was taken according to the above sprayed concentrations, then diluted with 20 times of volume of water, and then uniformly sprayed on the plants in the experiment groups and the control group. After leaf surfaces were dry, the plants were moved into greenhouse or outdoor to cultivate.
After the glyphosate was sprayed at the 1× dosage, growth states of the plants in each group were observed and recorded on a 10th day, and glyphosate was sprayed to the survived plants at the 2× dosage. The growth states of the plants in each group were observed and recorded 10 days later, and glyphosate was sprayed to the survived plants at the 5× dosage. The growth states of the plants in each group were observed and recorded 10 days later, and glyphosate was sprayed to the survived plants at the 20× dosage. The growth states of the plants in each group were observed and recorded 10 days later, and results are shown in Table 1, wherein corresponding numbers of plants denoted by −, +, ++ and +++ are listed, and “%++&+++” is percentage of plant having medium and high glyphosate resistance to the total number of plants observed.

[2] = 1X dosage (1060 g/hectare glyphosate), recorded on 10th day
[3] = 2X dosage (2120 g/hectare) sprayed to plants surviving 1X, recorded 10 days later
[4] = 5X dosage (5300 g/hectare) sprayed to plants surviving 2X, recorded 10 days later
[5] = 20X dosage (21200 g/hectare) sprayed to plants surviving 5X, recorded 10 days later
[6] = culture media containing 20 mM glyphosate

Row | Molecule | % ++&+++ (percentage of plant having medium and high glyphosate resistance to the total number of plants observed) [1, 2] | number of plants with resistance + (low glyphosate resistance) [1, 2] | number of plants with resistance ++ (medium glyphosate resistance) [1, 2] | number of plants with resistance +++ (high glyphosate resistance) [1, 2] | number of plants with resistance − (no glyphosate resistance) [1, 2] | % ++&+++ (percentage of plant having medium and high glyphosate resistance to the total number of plants observed) [1, 3] | number of plants with resistance + (low glyphosate resistance) [1, 3] | number of plants with resistance ++ (medium glyphosate resistance) [1, 3] | number of plants with resistance +++ (high glyphosate resistance) [1, 3] | number of plants with resistance − (no glyphosate resistance) [1, 3] | % ++&+++ (percentage of plant having medium and high glyphosate resistance to the total number of plants observed) [1, 4] | number of plants with resistance + (low glyphosate resistance) [1, 4] | number of plants with resistance ++ (medium glyphosate resistance) [1, 4] | number of plants with resistance +++ (high glyphosate resistance) [1, 4] | number of plants with resistance − (no glyphosate resistance) [1, 4] | % ++&+++ (percentage of plant having medium and high glyphosate resistance to the total number of plants observed) [1, 5] | number of plants with resistance + (low glyphosate resistance) [1, 5] | number of plants with resistance ++ (medium glyphosate resistance) [1, 5] | number of plants with resistance +++ (high glyphosate resistance) [1, 5] | number of plants with resistance − (no glyphosate resistance) [1, 5] | also measured
1 | B1 | 5.4% | 6 | 2 | 0 | 29 | 0.0% | 4 | 0 | 0 | 33 | 0.0% | 0 | 0 | 0 | 37 | 0.0% | 0 | 0 | 0 | 37 | growth of transformed E. coli (double knockout E. coli; culture media containing 1 mM glyphosate): obviously superior to the control group (G0); glyphosate resistance / survival of transformed rice seedlings (in words) [1]: some of the rice seedlings transformed by G1 still survived; glyphosate resistance of transformed rice seedlings (in words) [1]: obviously superior to that of G0
2 | B2 | 47.1% | 6 | 5 | 3 | 3 | 0.0% | 0 | 0 | 0 | 17 | 0.0% | 0 | 0 | 0 | 17 | 0.0% | 0 | 0 | 0 | 17 | growth of transformed E. coli (double knockout E. coli; [6]): could grow; glyphosate resistance / survival of transformed rice seedlings (in words) [1]: all rice seedlings containing the soybean EPSPS mutant G2 died; glyphosate resistance of transformed rice seedlings (in words) [1]: certain resistance to glyphosate
3 | B3 | 45.2% | 1 | 9 | 5 | 16 | 19.4% | 5 | 6 | 0 | 20 | 0.0% | 10 | 0 | 0 | 21 | 0.0% | 3 | 0 | 0 | 28 | growth of transformed E. coli (double knockout E. coli; [6]): superior to that of Experiment Group 2 (G2); glyphosate resistance of transformed rice seedlings (in words) [1]: certain resistance to glyphosate
